Test results: publication doi:10.1101/2022.01.25.477707 (bioRxiv, 2022)

T1: G5_(845-1508)-R1016C-TAP (human, UniProt Q8TEQ6 845-1508, R1016C)
T1 sequence (looked up): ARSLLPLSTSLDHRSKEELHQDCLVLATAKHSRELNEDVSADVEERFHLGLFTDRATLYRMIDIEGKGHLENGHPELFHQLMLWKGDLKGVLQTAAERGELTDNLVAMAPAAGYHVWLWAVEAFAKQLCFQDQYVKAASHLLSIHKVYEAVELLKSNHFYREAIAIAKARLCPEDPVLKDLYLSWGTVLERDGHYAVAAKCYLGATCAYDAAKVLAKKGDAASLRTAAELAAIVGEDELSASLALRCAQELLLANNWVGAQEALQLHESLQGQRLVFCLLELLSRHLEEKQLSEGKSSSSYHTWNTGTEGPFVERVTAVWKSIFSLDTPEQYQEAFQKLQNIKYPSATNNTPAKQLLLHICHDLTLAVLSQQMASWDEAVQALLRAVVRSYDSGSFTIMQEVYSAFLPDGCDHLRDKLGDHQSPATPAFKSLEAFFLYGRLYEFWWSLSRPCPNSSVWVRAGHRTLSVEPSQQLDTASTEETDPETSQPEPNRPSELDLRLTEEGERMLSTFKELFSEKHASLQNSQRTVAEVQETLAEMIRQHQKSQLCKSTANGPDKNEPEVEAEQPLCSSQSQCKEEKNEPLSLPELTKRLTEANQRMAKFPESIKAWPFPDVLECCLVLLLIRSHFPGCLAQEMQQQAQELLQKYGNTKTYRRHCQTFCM

T2: G5_(845-1508)-D1019E-TAP (human, UniProt Q8TEQ6 845-1508, D1019E)
T2 sequence (looked up): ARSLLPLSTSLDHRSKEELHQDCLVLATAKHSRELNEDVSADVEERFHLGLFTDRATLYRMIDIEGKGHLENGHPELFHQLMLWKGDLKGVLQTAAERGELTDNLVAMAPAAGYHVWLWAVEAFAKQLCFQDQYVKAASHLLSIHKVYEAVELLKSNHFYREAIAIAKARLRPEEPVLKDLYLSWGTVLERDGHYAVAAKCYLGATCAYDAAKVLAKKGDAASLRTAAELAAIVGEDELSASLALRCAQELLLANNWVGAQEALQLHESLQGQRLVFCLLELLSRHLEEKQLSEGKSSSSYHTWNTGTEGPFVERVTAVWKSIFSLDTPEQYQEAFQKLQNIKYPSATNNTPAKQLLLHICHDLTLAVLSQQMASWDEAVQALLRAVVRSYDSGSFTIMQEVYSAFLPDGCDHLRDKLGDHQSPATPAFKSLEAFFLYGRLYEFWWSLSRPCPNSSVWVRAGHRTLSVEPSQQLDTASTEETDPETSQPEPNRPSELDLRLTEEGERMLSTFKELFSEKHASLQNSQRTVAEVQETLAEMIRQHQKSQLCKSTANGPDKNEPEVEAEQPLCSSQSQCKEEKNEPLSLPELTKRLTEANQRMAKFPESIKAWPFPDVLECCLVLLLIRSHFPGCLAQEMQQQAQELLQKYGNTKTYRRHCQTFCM

T3: G5_(845-1508)-A951E-TAP (human), Q8TEQ6
T3 chain: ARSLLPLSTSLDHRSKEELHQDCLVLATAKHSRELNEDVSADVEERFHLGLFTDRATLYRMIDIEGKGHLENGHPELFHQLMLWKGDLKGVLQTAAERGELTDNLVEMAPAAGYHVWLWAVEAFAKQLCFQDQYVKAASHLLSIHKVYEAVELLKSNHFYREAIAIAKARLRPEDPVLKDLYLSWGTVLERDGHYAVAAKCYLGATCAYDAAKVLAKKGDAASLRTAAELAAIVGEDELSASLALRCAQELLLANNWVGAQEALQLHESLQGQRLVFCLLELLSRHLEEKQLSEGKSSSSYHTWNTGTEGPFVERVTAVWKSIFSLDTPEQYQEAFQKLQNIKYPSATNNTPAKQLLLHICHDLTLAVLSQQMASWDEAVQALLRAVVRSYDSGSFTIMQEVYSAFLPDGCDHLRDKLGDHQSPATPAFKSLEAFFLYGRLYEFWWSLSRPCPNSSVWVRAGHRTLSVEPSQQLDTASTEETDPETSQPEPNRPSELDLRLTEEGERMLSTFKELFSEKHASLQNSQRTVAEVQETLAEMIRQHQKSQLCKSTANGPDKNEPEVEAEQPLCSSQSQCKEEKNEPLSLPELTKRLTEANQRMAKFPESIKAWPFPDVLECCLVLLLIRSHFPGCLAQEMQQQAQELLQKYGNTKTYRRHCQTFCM


Experiments:
G5_(845-1508)-R1016C-TAP = target: T1, G5_(845-1508)-R1016C-TAP; test: co-IP
G5_(845-1508)-D1019E-TAP = target: T2, G5_(845-1508)-D1019E-TAP; test: co-IP
[1] = target: T3, G5_(845-1508)-A951E-TAP (human), Q8TEQ6; test: co-IP; conditions: remark: other sources report otherwise
SEC-MALS = target: the molecule itself; test: SEC-MALS

| Binder | intensity of co-IP relative to the WT protein (G5_(845-1508)-R1016C-TAP) | intensity of co-IP relative to the WT protein (G5_(845-1508)-D1019E-TAP) | fold by which the recruitment of Gemin5 by WT exceeds that by this mutant [1] [fold] | stoichiometry N (SEC-MALS) |
| --- | --- | --- | --- | --- |
| Gemin5 endogenous protein (natural protein, human (endogenous in HEK293), UniProt Q8TEQ6 1-1508, looked up) MGQEPRTLPPSPNWYCARCSDAVPGGLFGFAARTSVFLVRVGPGAGESPGTPPFRVIGELVGHTERVSGFTFSHHPGQYNLCATSSDDGTVKIWDVETKTVVTEHALHQHTISTLHWSPRVKDLIVSGDEKGVVFCYWFNRNDSQHLFIEPRTIFCLTCSPHHEDLVAIGYKDGIVVIIDISKKGEVIHRLRGHDDEIHSIAWCPLPGEDCLSINQEETSEEAEITNGNAVAQAPVTKGCYLATGSKDQTIRIWSCSRGRGVMILKLPFLKRRGGGIDPTVKERLWLTLHWPSNQPTQLVSSCFGGELLQWDLTQSWRRKYTLFSASSEGQNHSRIVFNLCPLQTEDDKQLLLSTSMDRDVKCWDIATLECSWTLPSLGGFAYSLAFSSVDIGSLAIGVGDGMIRVWNTLSIKNNYDVKNFWQGVKSKVTALCWHPTKEGCLAFGTDDGKVGLYDTYSNKPPQISSTYHKKTVYTLAWGPPVPPMSLGGEGDRPSLALYSCGGEGIVLQHNPWKLSGEAFDINKLIRDTNSIKYKLPVHTEISWKADGKIMALGNEDGSIEIFQIPNLKLICTIQQHHKLVNTISWHHEHGSQPELSYLMASGSNNAVIYVHNLKTVIESSPESPVTITEPYRTLSGHTAKITSVAWSPHHDGRLVSASYDGTAQVWDALREEPLCNFRGHRGRLLCVAWSPLDPDCIYSGADDFCVHKWLTSMQDHSRPPQGKKSIELEKKRLSQPKAKPKKKKKPTLRTPVKLESIDGNEEESMKENSGPVENGVSDQEGEEQAREPELPCGLAPAVSREPVICTPVSSGFEKSKVTINNKVILLKKEPPKEKPETLIKKRKARSLLPLSTSLDHRSKEELHQDCLVLATAKHSRELNEDVSADVEERFHLGLFTDRATLYRMIDIEGKGHLENGHPELFHQLMLWKGDLKGVLQTAAERGELTDNLVAMAPAAGYHVWLWAVEAFAKQLCFQDQYVKAASHLLSIHKVYEAVELLKSNHFYREAIAIAKARLRPEDPVLKDLYLSWGTVLERDGHYAVAAKCYLGATCAYDAAKVLAKKGDAASLRTAAELAAIVGEDELSASLALRCAQELLLANNWVGAQEALQLHESLQGQRLVFCLLELLSRHLEEKQLSEGKSSSSYHTWNTGTEGPFVERVTAVWKSIFSLDTPEQYQEAFQKLQNIKYPSATNNTPAKQLLLHICHDLTLAVLSQQMASWDEAVQALLRAVVRSYDSGSFTIMQEVYSAFLPDGCDHLRDKLGDHQSPATPAFKSLEAFFLYGRLYEFWWSLSRPCPNSSVWVRAGHRTLSVEPSQQLDTASTEETDPETSQPEPNRPSELDLRLTEEGERMLSTFKELFSEKHASLQNSQRTVAEVQETLAEMIRQHQKSQLCKSTANGPDKNEPEVEAEQPLCSSQSQCKEEKNEPLSLPELTKRLTEANQRMAKFPESIKAWPFPDVLECCLVLLLIRSHFPGCLAQEMQQQAQELLQKYGNTKTYRRHCQTFCM | 58 % relative to the WT protein | 62 % relative to the WT protein | 10 |  |
| Gemin5 TPR-like dimerization domain R1016C (domain or fragment, human, UniProt Q8TEQ6 845-1097, looked up) ARSLLPLSTSLDHRSKEELHQDCLVLATAKHSRELNEDVSADVEERFHLGLFTDRATLYRMIDIEGKGHLENGHPELFHQLMLWKGDLKGVLQTAAERGELTDNLVAMAPAAGYHVWLWAVEAFAKQLCFQDQYVKAASHLLSIHKVYEAVELLKSNHFYREAIAIAKARLCPEDPVLKDLYLSWGTVLERDGHYAVAAKCYLGATCAYDAAKVLAKKGDAASLRTAAELAAIVGEDELSASLALRCAQELLL |  |  |  | 2 |
| Gemin5 TPR-like dimerization domain D1019E (domain or fragment, human, UniProt Q8TEQ6 845-1097, looked up) ARSLLPLSTSLDHRSKEELHQDCLVLATAKHSRELNEDVSADVEERFHLGLFTDRATLYRMIDIEGKGHLENGHPELFHQLMLWKGDLKGVLQTAAERGELTDNLVAMAPAAGYHVWLWAVEAFAKQLCFQDQYVKAASHLLSIHKVYEAVELLKSNHFYREAIAIAKARLRPEEPVLKDLYLSWGTVLERDGHYAVAAKCYLGATCAYDAAKVLAKKGDAASLRTAAELAAIVGEDELSASLALRCAQELLL |  |  |  | 2 |
